# From the DeepSol protein solubility set
# Experiment: soluble on expression in E. coli; label from the status in PepcDB or PDB records
row,Sequence,soluble on expression in E. coli
1,MGSDKIHHHHHHMSITPHRLPVAPVIVREAYLSLLRKGWRPGDRDLKTPRNVKIETGIIEKAEGSALVKLGKTQVIAGVKAGVGAPFKDTPNQGVLTVHAEFVPLASPVFEPGPPDENAIELARVVDRSLREVGAVDLESLVIRPGEKVWVLWVDLYIIDHDGNLFDASMLATMAVLLTARLPRYEESETGEIIISKEGEGEELKVKTRVVTVTTAKIDRYIVVDPNIEEEAVSDVRLVTAVDENGRIVGLQKTGMGSLTEADIETMIGYSLEASKVYFKALEEAIKP,not soluble
2,MGSDKIHHHHHHMSKAPDFEGLAMFAKVAEERSFAAAARVLGLSVATVSRGVSRLEERLGARLFNRTSRRLALTDFGHRLAERASRLYRDAEDAENAARELSASPRGLVRLAVPMSFGLRWVAPLLPDFFKLYPDVSIDMHLSDAVVDLIGEGFDAALRIAVLPDSSLVARRLCSIAPFIVAAPSYLARHGRPSTPRDLDAHHCLGYAYRPRQDVWHFSNAAGDEEVVTPSGPLRVTNSDALVPTVLAGIAIAELPEFIASEYLADGRLQAILTDWTLPRGALYFVTPSARARPAKVEAVAGFMAAHLSRPSWQPINP,not soluble
3,MGSDKIHHHHHHMSKHVPKATLLTPSDVAFITDANRPVLTHTRNMAAEAGIEPHSHPRGQLLWAAKGLLRVRSENAVWVVPSTHAVWIPCNLPHQVNSETHAHTRNIYIDPSYDVRSLDTQVVMVTMTALMRELVLKLCESSHLMNSGQLHRLGLVAIDELETLDSLDAHLPAGSDPRLSRLIQKLIRHPTVNYTLTELAEMGGASVRTIERLFKAETGLTYRQWRQRFRLLNSLESLSQGESTTRVAHSLGYLSVSSFSAAFKMQFGCTPQDYPQHKPMKSKVNWFPDPVTGNN,not soluble
4,MGSDKIHHHHHHMSKNEIIWFDGKWSDSGVPMIGAADHAFWMASTVFDGARAINGHLPDLSAHSQRVINSALTMGMKPKIDRQEIERLVHEGMSHLTNQETDYYIKMLFFCPGGFLLPDADTTTFALHIFEAPLPEDKGFSATFSEYRRPAPSMAPTEAKASCLYPNTQRIIRDAIARGFENAVVLDSDGNVAEFAVANLWIVRDGVALTPTPNGSFLNGITRQRVMALLRDDGITVRETQLAPSDVMEADEVFSTGNHGKVLHCNRVEDRSLPYGPIAQRARELYMAYAHTC,not soluble
5,MGSDKIHHHHHHMSKTLKEITDQKNELKKFFENFVLNLEKTEIFSEIQKNLTDEVLFVGCGSSYNLALTISYYFERVLKIRTKAIPAGEVAFQKIPDLEERGLAFLFSRTGNTTEVLLANDVLKKRNHRTIGITIEEESRLAKESDLPLVFPVREEAIVMTKSFSMILLSLMFLADKIAGNSTERFSELVGYSPEFFDISWKVIEKIDLKEHDHFVFLGMSEFFGVSLESALKCIEMSLTFSEAYSTLEYRHGPKALVKKGTLVFMQKVSGMDEQEKRLRKELESLGATVLEVGEGGDIPVSNDWKSAFLRTVPAQILGYQKAISRGISPDKPPHLEKTVVL,soluble
6,MGSDKIHHHHHHMSKVFSPFQFDNSFVRSMEGFFEPWQGARVPAPAMVCFNQQLADELGMDADAMEDSRLAAFFCGMLTAEGSEPVAMAYAGHQFGGFSPRLGDGRALLLGEVKDIHGRRRDLHLKGSGRTNFSRGGDGKAVLGPVLREYLMGEAMHALGIPTTRALAAVTTGEDIYRDGIKPGAVLARVASSHIRVGTFEYAAARGDHEGLRELVNYSLKRHYPELEDEQTPALALLNSVSRAQAKLVAKWMGVGFIHGVMNTDNVTISGETIDYGPCAFMDTYDARTVFSSIDHEGRYAYGNQPGIARWNLARFAEALLPLLAEDESEALAHAQTVLDGFAEVYTNEWLAVFAAKFGLKTAQDGDLELFMDFLTLLGELKLDFTRSFRALANSLGDTAAAGIEALTADSARFAPWLTRWHERLGREYASQSDFASDARALMQGVNPVYIPRNHLLQGALDSAEAGDMAPFERLLEVVCRPYEELAGYGAYALGAPEDFGPFRTFCGT,not soluble
7,MGSDKIHHHHHHMSLTITKLQKKIADQAVLNNITFSLSLGQVVGLVGPNGIGKTTIFRTVTHQYRADGGTIELDEQDLTDHPEQRENLFYLDNQHLFFRKYRLDKIAGDYQLLYATFDQARFMALIEKFGLQGSQRFQSLSKGYQALVMVALALASGAPYVFLDEPFDGLDLLIRERIVNLVVDAVADGKRTFLIASHNLVELDGLSDRVLFVKAGRISQDLTLEDVRQQAIKLQLVFKTKAIPDVIR,not soluble
8,MGSDKIHHHHHHMSLTPVLDKIDSDVSAATDRLLELLRIPSISTDPAYKADCDAAADWLVKDLNSIGIKAEKRETPGHPMVVGHVGEENTKGPHLLFYGHYDVQPVDPLNLWNTPPFEPQLEETPNGTVIRGRGASDDKGQLMTFVEACRAWQAVHGTLPCRITFFFEGEEESGSPSLIPFLEAAKEELSADIALICDTSMVARGVPLVASQLRGMMKDEFTLIGPKIDLHSGHYGGPGLNPLREISHIIASFHDPDTGAVAVEGFYEGVPEVPADILRQWEGCGFDEKDYLSNAGYTEAHGEKKYSTLEQQWARPTLEINGLWGGYQGAGTKTVIPSEAHCKITCRLVGDMDPADLRQKIRKHVEDRLPTDCTVKWDLDLDGAPAYVIDTTRPEFEAARGALTEEWNREAVFSGMGGSIPVAGYFKSILGMDAMLIGFANEDDAIHSPNEKYDLESFHKGIRSWARVLDALSKA,not soluble
9,MGSDKIHHHHHHMSNAEWLNALETPFLLIDEFRFQRNIDRLYQRTKNLGSQVRPHLKTLRSIEAGRYLLKDSASPATVSTLAEAEAFAGAGYTNLLYAVGIAPHKLPRIANLIHKGVNLHILLDSVEQARAVTDYALANNVTFSVFIEIDCDGHRGGIPPESDALLELAQQIDGNGATLTGLLAHAGESYACRTDEAIRAAARAECAAINIAGRRVRALGIACPVLSVGATPTAHFAEDLTGITEVRAGVFTTFDLVMKNVGVCSLDDIALSVVSTVIGHNREKGWVFIDAGWMALSRDRGTASQAKDYGYGLVCDLHGSPYHDLCVTVTNQEHGIIALPTDSGFSVDNFPVGTRLRILPNHACATAAMHQHYQVLKSHRHEQETWQRITGW,not soluble
10,MGSDKIHHHHHHMSNLPLISVVIPTYGREEILRDSIVDVLNQDYPKYEVLVVDQSPKHKPEIETYLEEVAAAGKVKWFRLDWASLPGARNYAIRRASGEIILFIDDDVKLKPGFLAAHAKNYVQNPDVGSVAGRVFDRMKLGDSGGNLEIEYLPPEAMDPGVAWYHIDLVHTIKPQQVLTARGCNMSFRREIFTKHGLRFDERFRGSAVREESDFCLRLRQTGYKIWYDPEADLIHLGEETGGCHDISMRSLKYQFTFYHNHFLLGLKNLNFSQALRLYARLFDCHVLGRPPCHKSGSPIKIITRGIFYILGFFRALGSVIQSNWHDGQIYSRLDQESIIKSQESMVNS,not soluble
11,MGSDKIHHHHHHMSQDTILLIWDRIGDYHLSRVKACEKLLGAPVFTADLAGTDNLYKWDSIAKTTHTVLSSKPAEQSDIWNRFRTFRRIIKTHSIAVVAMPYGRTEYHIFLLYARLKGIRTIIFSESWYSRGKLKDFLKSLLLKSLGNYFFVSGKRAFDHFTKNYKINPEKIETGYSVVDNNHFQRRLFTEKKYVLTIARYSEEKNLSFLIDSYAKSVISNTYNLMLIGEGPLRPALQSQIDILGLSDRVQLAGWVPYAALPKAYAEAVVFVLPSSFEPWGLVVNEAMSAGLPILVSDACGCMPELVAEGVNGWSFNSNTQQELIERLNAFAALSEKGIEITGKNSMQLIRNYTPDTWAGSIARLAQAGR,not soluble
12,MGSDKIHHHHHHMSQRIGVIDMGTNTFHLLITDIVNDRPHTLVNEKSAVGLGKGGITKGFITEEAMDRALDTLKKFRVILDEHAVVHVIATGTSAVRSGSNKQVLIDRIKKEVNIDVEVIDGAREAELIFRGVQQAVPMEDHISLAMDIGGGSVEFIIGNKNEILWKQSFEIGGQRLIDRFHVHDPMREDDRVMMHNYFDEVLVPLEKAINTWRPTQLIGCSGTFDTLAEMNIQHHREKIALEKQTSYLLSLPDFNRLRKQLVASTRRERLAIAGMIELRADMVVVAICLIEHVLKLVSTNAITVSTYSLKEGVLYTMLDGVKVGS,not soluble
